Experimental data taken from the Human Domainome abundance scans (Beltran et al. 2025).
± gives the uncertainty stated by the source.

B1: POU domain, class 4, transcription factor 1, residues 266 to 347; numbered along this chain, Q01851 (parent)
chain: RELEAFAERFKQRRIKLGVTQADVGSALANLKIPGVGSLSQSTICRFESLTLSHNNMIALKPILQAWLEEAEGAQREKMNKP

Variants of: B1
Assay: abundance fitness (aPCA) (normalised: wild type 0, dead -1); higher = more abundant; growth selection in yeast, the domain comes from the species named
Conditions: Homo sapiens

In order of falling abundance fitness:
1. G73Y  0.144 ± 0.085
2. N30K  0.113 ± 0.088
3. L50C  0.095 ± 0.046
4. L60C  0.074 ± 0.17
5. K16E  0.063 ± 0.048
6. C45E  0.06 ± 0.046
7. N30P  0.06 ± 0.1
8. C45A  0.057 ± 0.043
9. E69I  0.056 ± 0.11
10. L50M  0.055 ± 0.045
11. Q41E  0.051 ± 0.039
12. R46Q  0.042 ± 0.07
13. G25D  0.037 ± 0.093
14. T51E  0.032 ± 0.07
15. L50A  0.031 ± 0.032
16. R76A  0.03 ± 0.025
17. Q12E  0.015 ± 0.037
18. R76L  0.012 ± 0.023
19. A66E  0.012 ± 0.029
20. L50Y  0.008 ± 0.04
21. A66H  0.001 ± 0.059
22. C45I  -0.001 ± 0.09
23. R76P  -0.002 ± 0.034
24. R76H  -0.003 ± 0.053
25. N30G  -0.009 ± 0.041
26. I15Q  -0.013 ± 0.038
27. R76D  -0.015 ± 0.039
28. S40C  -0.017 ± 0.057
29. T51G  -0.021 ± 0.039
30. Q12T  -0.021 ± 0.031
31. E69A  -0.022 ± 0.048
32. I15V  -0.023 ± 0.035
33. G73S  -0.027 ± 0.057
34. L60V  -0.029 ± 0.087
35. R46G  -0.038 ± 0.038
36. A66M  -0.041 ± 0.039
37. A66Q  -0.046 ± 0.035
38. G73R  -0.054 ± 0.045
39. Q41T  -0.055 ± 0.062
40. R76W  -0.056 ± 0.026
41. L50T  -0.062 ± 0.039
42. G73M  -0.065 ± 0.06
43. G73H  -0.068 ± 0.15
44. C45L  -0.073 ± 0.05
45. Q41W  -0.074 ± 0.051
46. Q12L  -0.078 ± 0.027
47. S40K  -0.079 ± 0.06
48. I15H  -0.083 ± 0.037
49. N30L  -0.084 ± 0.088
50. E69T  -0.085 ± 0.07
51. I15A  -0.099 ± 0.038
52. A66Y  -0.104 ± 0.048
53. T51V  -0.105 ± 0.038
54. T51C  -0.106 ± 0.048
55. R46C  -0.117 ± 0.1
56. S40A  -0.129 ± 0.053
57. L50I  -0.13 ± 0.043
58. Q12R  -0.14 ± 0.028
59. A66I  -0.141 ± 0.05
60. S40H  -0.159 ± 0.16
61. E69Y  -0.171 ± 0.19
62. K16W  -0.177 ± 0.05
63. E69G  -0.207 ± 0.043
64. L60N  -0.223 ± 0.26
65. L50E  -0.26 ± 0.057
66. R46Y  -0.307 ± 0.17
67. I15F  -0.322 ± 0.039
68. N30C  -0.337 ± 0.17
69. Q12W  -0.339 ± 0.037
70. L60F  -0.355 ± 0.23
71. L60H  -0.392 ± 0.29
72. T51F  -0.406 ± 0.053
73. Q12C  -0.466 ± 0.053
74. F6C  -0.478 ± 0.039
75. R46V  -0.503 ± 0.071
76. L60W  -0.605 ± 0.2
77. F6N  -0.79 ± 0.098
78. F6R  -0.987 ± 0.042
79. I15P  -0.989 ± 0.084
80. E48D  -1 ± 0.09
81. E48V  -1.04 ± 0.072
82. E48Y  -1.05 ± 0.12
83. E48C  -1.27 ± 0.18
84. E48I  -1.28 ± 0.17
